T1: human FcγRIIa H131 (human, UniProt P12318 34-317, limits assumed)
T1 construct: FACS implies display on cells, but the methods name no FcγRIIa cell line; also called huFcγRIIa H131
T1 sequence (looked up): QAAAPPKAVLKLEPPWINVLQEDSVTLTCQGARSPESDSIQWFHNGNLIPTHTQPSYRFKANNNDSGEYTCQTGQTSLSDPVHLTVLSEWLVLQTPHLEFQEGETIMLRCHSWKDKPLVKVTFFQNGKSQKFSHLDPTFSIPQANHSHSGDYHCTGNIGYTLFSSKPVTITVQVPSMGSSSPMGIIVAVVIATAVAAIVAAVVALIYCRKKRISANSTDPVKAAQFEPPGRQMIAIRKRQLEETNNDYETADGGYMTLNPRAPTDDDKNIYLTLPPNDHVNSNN

T2: human FcγRIIa R131 (human, UniProt P12318 34-317, limits assumed)
T2 construct: FACS implies display on cells, but the methods name no FcγRIIa cell line; also called huFcγRIIa R131
T2 sequence (looked up): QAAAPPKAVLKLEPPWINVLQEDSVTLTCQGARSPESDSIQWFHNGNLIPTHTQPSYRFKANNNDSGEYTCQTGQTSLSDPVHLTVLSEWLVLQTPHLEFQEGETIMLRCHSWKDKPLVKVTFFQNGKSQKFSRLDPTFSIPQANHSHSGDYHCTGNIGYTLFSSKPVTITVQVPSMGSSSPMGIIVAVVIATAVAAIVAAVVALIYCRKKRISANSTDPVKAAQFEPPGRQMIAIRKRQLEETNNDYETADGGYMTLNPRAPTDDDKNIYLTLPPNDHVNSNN


Assays:
[1] = target: T1, human FcγRIIa H131; experiment: FACS, assay 1 n=3
[2] = target: T2, human FcγRIIa R131; experiment: FACS, assay 1 n=3
[3] = target: T3, huFcγRIIIa_V158 His protein (human, UniProt P08637 17-208); experiment: SPR, His-receptor captured, assay 1 n=3
T3 construct: also called His-tagged recombinant human FcγRIIIa-V158
T3 sequence (P08637 17-208 F176V limits assumed): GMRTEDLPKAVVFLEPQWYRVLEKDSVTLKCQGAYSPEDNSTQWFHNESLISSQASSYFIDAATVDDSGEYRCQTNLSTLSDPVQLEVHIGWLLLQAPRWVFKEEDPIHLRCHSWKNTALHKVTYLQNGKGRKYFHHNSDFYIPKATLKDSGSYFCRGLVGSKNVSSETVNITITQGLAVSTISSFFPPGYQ

[4] = target: huFcγRIIIa_F158 His protein (human, UniProt P08637 17-208); experiment: SPR, His-receptor captured, assay 1 n=3
Sequence of huFcγRIIIa_F158 His protein (P08637 17-208 limits assumed): as the sequence (P08637 17-208 F176V limits assumed) above, with V160F counted along it

[5] = target: T4, human FcRn (human, UniProt P55899 24-297); experiment: SPR pH 6.0, huFcRn captured, assay 1 n=3
T4 construct: also called huFcRn; recombinant human FcRn
T4 sequence (P55899 24-297): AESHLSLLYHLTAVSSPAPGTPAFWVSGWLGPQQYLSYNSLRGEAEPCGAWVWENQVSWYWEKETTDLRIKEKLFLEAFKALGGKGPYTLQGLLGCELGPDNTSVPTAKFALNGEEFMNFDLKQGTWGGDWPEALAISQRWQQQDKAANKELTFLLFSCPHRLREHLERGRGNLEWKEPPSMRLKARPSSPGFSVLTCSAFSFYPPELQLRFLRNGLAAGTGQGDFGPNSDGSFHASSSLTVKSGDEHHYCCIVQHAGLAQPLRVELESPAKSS

[6] = target: T5, FcγRIIIa V158 on HEK293T cells (human, UniProt P08637 17-254); experiment: FACS on HEK293T-FcγRIIIa cells, assay 1 n=3
T5 construct: whole, on cells
T5 sequence (P08637 17-254 F176V): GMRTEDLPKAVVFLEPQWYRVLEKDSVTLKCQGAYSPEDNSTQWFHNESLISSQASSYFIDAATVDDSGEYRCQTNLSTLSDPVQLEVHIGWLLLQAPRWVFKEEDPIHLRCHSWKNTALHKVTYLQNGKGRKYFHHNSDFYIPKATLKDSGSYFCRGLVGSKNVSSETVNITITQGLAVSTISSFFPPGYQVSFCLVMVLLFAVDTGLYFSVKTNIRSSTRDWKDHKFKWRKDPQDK

[7] = target: T6, FcγRIIIa F158 on HEK293T cells (human, UniProt P08637 17-254); experiment: FACS on HEK293T-FcγRIIIa cells, assay 1 n=3
T6 construct: whole, on cells; also called HEK293T-FcγRIIIa F158
T6 sequence (P08637 17-254): as the sequence (P08637 17-254 F176V) above, with V160F counted along it

Binder	EC50 [1]	EC50 [2]	Kd [3]	Kd [4]	Kd [5]	EC50 [6]	EC50 [7]
mAb1-ADLE-L242C-K334C (antibody) chain 1: QVQLVQSGAEVKKPGASVKVSCKASGYSFTSYGISWVRQAPGQGLEWMGWISTYKGYTQYAQNFQGRVTITTDTPATTVYMELRSLRSDDTAVYYCARVLSETGYFYYYYYGMDVWGQGTLVTVSSASTKGPSVFPLAPSSKSTSGGTAALGCLVKDYFPEPVTVSWNSGALTSGVHTFPAVLQSSGLYSLSSVVTVPSSSLGTQTYICNVNHKPSNTKVDKKVEPKSCDKTHTCPPCPAPELLAGPDVFCFPPKPKDTLMISRTPEVTCVVVDVSHEDPEVKFNWYVDGVEVHNAKTKPREEQYNSTYRVVSVLTVLHQDWLNGKEYKCKVSNKALPLPEECTISKAKGQPREPQVYTLPPSRDELTKNQVSLTCLVKGFYPSDIAVEWESNGQPENNYKTTPPVLDSDGSFFLYSKLTVDKSRWQQGNVFSCSVMHEALHNHYTQKSLSLSPG chain 2: QAVVTQPPSVSGAPGQRVTISCTGSSSNIGADYNVHWYQLLPGTAPKLLIYGNTNRPSGVPDRFSGSKSGTSASLAITGLQAEDEADYYCQSYDSSLSASVFGGGTKLTVLGQPKAAPSVTLFPPSSEELQANKATLVCLISDFYPGAVTVAWKADSSPVKAGVETTTPSKQSNNKYAASSYLSLTPEQWKSHRSYSCQVTHEGSTVEKTVAPTECS	145 nM	428 nM	161 nM	148 nM	956 nM	5 nM	11 nM
mAb1-ADE-L242C-K334C (antibody) chain 1: QVQLVQSGAEVKKPGASVKVSCKASGYSFTSYGISWVRQAPGQGLEWMGWISTYKGYTQYAQNFQGRVTITTDTPATTVYMELRSLRSDDTAVYYCARVLSETGYFYYYYYGMDVWGQGTLVTVSSASTKGPSVFPLAPSSKSTSGGTAALGCLVKDYFPEPVTVSWNSGALTSGVHTFPAVLQSSGLYSLSSVVTVPSSSLGTQTYICNVNHKPSNTKVDKKVEPKSCDKTHTCPPCPAPELLAGPDVFCFPPKPKDTLMISRTPEVTCVVVDVSHEDPEVKFNWYVDGVEVHNAKTKPREEQYNSTYRVVSVLTVLHQDWLNGKEYKCKVSNKALPAPEECTISKAKGQPREPQVYTLPPSRDELTKNQVSLTCLVKGFYPSDIAVEWESNGQPENNYKTTPPVLDSDGSFFLYSKLTVDKSRWQQGNVFSCSVMHEALHNHYTQKSLSLSPG chain 2: QAVVTQPPSVSGAPGQRVTISCTGSSSNIGADYNVHWYQLLPGTAPKLLIYGNTNRPSGVPDRFSGSKSGTSASLAITGLQAEDEADYYCQSYDSSLSASVFGGGTKLTVLGQPKAAPSVTLFPPSSEELQANKATLVCLISDFYPGAVTVAWKADSSPVKAGVETTTPSKQSNNKYAASSYLSLTPEQWKSHRSYSCQVTHEGSTVEKTVAPTECS	102 nM	142 nM	162 nM	193 nM	829 nM	5 nM	18 nM

Continued by falling EC50 [1], values first:

EC50 [1]	EC50 [2]	Kd [3]	Kd [4]	Kd [5]	EC50 [6]	EC50 [7]	Binder
101 nM	45 nM	214 nM	202 nM	198 nM	10 nM	17 nM	mAb1-ADE-DQ-R292C-V302C (antibody) chain 1: QVQLVQSGAEVKKPGASVKVSCKASGYSFTSYGISWVRQAPGQGLEWMGWISTYKGYTQYAQNFQGRVTITTDTPATTVYMELRSLRSDDTAVYYCARVLSETGYFYYYYYGMDVWGQGTLVTVSSASTKGPSVFPLAPSSKSTSGGTAALGCLVKDYFPEPVTVSWNSGALTSGVHTFPAVLQSSGLYSLSSVVTVPSSSLGTQTYICNVNHKPSNTKVDKKVEPKSCDKTHTCPPCPAPELLAGPDVFLFPPKPKDTLMISRDPEVTCVVVDVSHEDPEVKFNWYVDGVEVHNAKTKPCEEQYNSTYRCVSVLQVLHQDWLNGKEYKCKVSNKALPAPEEKTISKAKGQPREPQVYTLPPSRDELTKNQVSLTCLVKGFYPSDIAVEWESNGQPENNYKTTPPVLDSDGSFFLYSKLTVDKSRWQQGNVFSCSVMHEALHNHYTQKSLSLSPG chain 2: QAVVTQPPSVSGAPGQRVTISCTGSSSNIGADYNVHWYQLLPGTAPKLLIYGNTNRPSGVPDRFSGSKSGTSASLAITGLQAEDEADYYCQSYDSSLSASVFGGGTKLTVLGQPKAAPSVTLFPPSSEELQANKATLVCLISDFYPGAVTVAWKADSSPVKAGVETTTPSKQSNNKYAASSYLSLTPEQWKSHRSYSCQVTHEGSTVEKTVAPTECS
92 nM	43 nM	172 nM	211 nM	1310 nM	12 nM	19 nM	mAb1-ADE-R292C-V302C (antibody) chain 1: QVQLVQSGAEVKKPGASVKVSCKASGYSFTSYGISWVRQAPGQGLEWMGWISTYKGYTQYAQNFQGRVTITTDTPATTVYMELRSLRSDDTAVYYCARVLSETGYFYYYYYGMDVWGQGTLVTVSSASTKGPSVFPLAPSSKSTSGGTAALGCLVKDYFPEPVTVSWNSGALTSGVHTFPAVLQSSGLYSLSSVVTVPSSSLGTQTYICNVNHKPSNTKVDKKVEPKSCDKTHTCPPCPAPELLAGPDVFLFPPKPKDTLMISRTPEVTCVVVDVSHEDPEVKFNWYVDGVEVHNAKTKPCEEQYNSTYRCVSVLTVLHQDWLNGKEYKCKVSNKALPAPEEKTISKAKGQPREPQVYTLPPSRDELTKNQVSLTCLVKGFYPSDIAVEWESNGQPENNYKTTPPVLDSDGSFFLYSKLTVDKSRWQQGNVFSCSVMHEALHNHYTQKSLSLSPG chain 2: QAVVTQPPSVSGAPGQRVTISCTGSSSNIGADYNVHWYQLLPGTAPKLLIYGNTNRPSGVPDRFSGSKSGTSASLAITGLQAEDEADYYCQSYDSSLSASVFGGGTKLTVLGQPKAAPSVTLFPPSSEELQANKATLVCLISDFYPGAVTVAWKADSSPVKAGVETTTPSKQSNNKYAASSYLSLTPEQWKSHRSYSCQVTHEGSTVEKTVAPTECS
68 nM	152 nM	191 nM	211 nM	161 nM	7 nM	19 nM	mAb1-ADE-DQ-L242C-K334C (antibody) chain 1: QVQLVQSGAEVKKPGASVKVSCKASGYSFTSYGISWVRQAPGQGLEWMGWISTYKGYTQYAQNFQGRVTITTDTPATTVYMELRSLRSDDTAVYYCARVLSETGYFYYYYYGMDVWGQGTLVTVSSASTKGPSVFPLAPSSKSTSGGTAALGCLVKDYFPEPVTVSWNSGALTSGVHTFPAVLQSSGLYSLSSVVTVPSSSLGTQTYICNVNHKPSNTKVDKKVEPKSCDKTHTCPPCPAPELLAGPDVFCFPPKPKDTLMISRDPEVTCVVVDVSHEDPEVKFNWYVDGVEVHNAKTKPREEQYNSTYRVVSVLQVLHQDWLNGKEYKCKVSNKALPAPEECTISKAKGQPREPQVYTLPPSRDELTKNQVSLTCLVKGFYPSDIAVEWESNGQPENNYKTTPPVLDSDGSFFLYSKLTVDKSRWQQGNVFSCSVMHEALHNHYTQKSLSLSPG chain 2: QAVVTQPPSVSGAPGQRVTISCTGSSSNIGADYNVHWYQLLPGTAPKLLIYGNTNRPSGVPDRFSGSKSGTSASLAITGLQAEDEADYYCQSYDSSLSASVFGGGTKLTVLGQPKAAPSVTLFPPSSEELQANKATLVCLISDFYPGAVTVAWKADSSPVKAGVETTTPSKQSNNKYAASSYLSLTPEQWKSHRSYSCQVTHEGSTVEKTVAPTECS
14 nM	18 nM	155 nM	183 nM	217 nM	4 nM	13 nM	mAb1-ADE-DQ (antibody) chain 1: QVQLVQSGAEVKKPGASVKVSCKASGYSFTSYGISWVRQAPGQGLEWMGWISTYKGYTQYAQNFQGRVTITTDTPATTVYMELRSLRSDDTAVYYCARVLSETGYFYYYYYGMDVWGQGTLVTVSSASTKGPSVFPLAPSSKSTSGGTAALGCLVKDYFPEPVTVSWNSGALTSGVHTFPAVLQSSGLYSLSSVVTVPSSSLGTQTYICNVNHKPSNTKVDKKVEPKSCDKTHTCPPCPAPELLAGPDVFLFPPKPKDTLMISRDPEVTCVVVDVSHEDPEVKFNWYVDGVEVHNAKTKPREEQYNSTYRVVSVLQVLHQDWLNGKEYKCKVSNKALPAPEEKTISKAKGQPREPQVYTLPPSRDELTKNQVSLTCLVKGFYPSDIAVEWESNGQPENNYKTTPPVLDSDGSFFLYSKLTVDKSRWQQGNVFSCSVMHEALHNHYTQKSLSLSPG chain 2: QAVVTQPPSVSGAPGQRVTISCTGSSSNIGADYNVHWYQLLPGTAPKLLIYGNTNRPSGVPDRFSGSKSGTSASLAITGLQAEDEADYYCQSYDSSLSASVFGGGTKLTVLGQPKAAPSVTLFPPSSEELQANKATLVCLISDFYPGAVTVAWKADSSPVKAGVETTTPSKQSNNKYAASSYLSLTPEQWKSHRSYSCQVTHEGSTVEKTVAPTECS
